{"source": "patent US6413737", "proteins": {"B1": {"name": "preproecarin S396, S170, His6 (pDOEC35) (protein)", "chain": "CSIILGSGNVNDYEVVYPQKVTALPKGAVQQPEQKYEDAMQYEFEVKGEPVVLHLEKNKELFSEDYSETHYSSDDREITTNPSVEDHCYYHGRIQNDAESTASISACNGLKGHFKLRGETYFIEPLKIPDSEAHAVYKYENIENEDEAPKMSGVTQDNWESDEPIKKTLGLIVPPHERKFEKKFIELVVVVDHSMVTKYNNDSTAIRTWIYEMLNTVNEIYLPFNIRVALVGLEFWCNGDLINVTSTADDTLHSFGEWRASDLLNRKRHDHAQLLTNVTLDHSTLGITFVYGMCKSDRSVELILDYSNITFNMAYIIAHEMGHSLGMLHDTKFCTCGAKPCIMFGKESIPPPKEFSSCSYDQYNKYLLKYNPKCILDSPLRKDIASPAVCGNEIWEEGEECDCGSPADCRNPCCDAATCKLKPGAECGNGECCDKCKIRKAGTECRPARDDCDVAEHCTGQSAECPRNEFQRNGQPCLNNSGYCYNGDCPIMLNQCIALFSPSATVAQDSCFQRNLQGSYYGYCTKEIGYYGKRFPCAPQDVKCGRLYCLDNSFKKNMRCKNDYSYADENKGIVEPGTKCEDGKVCINRKCVDVNTAYHHHHHH"}, "B2": {"name": "preproecarin S396, delta IV (pDOEC37) (protein)", "chain": "CSIILGSGNVNDYEVVYPQKVTALPKGAVQQPEQKYEDAMQYEFEVKGEPVVLHLEKNKELFSEDYSETHYSSDDREITTNPSVEDHCYYHGRIQNDAESTASISACNGLKGHFKLRGETYFIEPLKIPDSEAHAVYKYENIENEDEAPKMCGVTQDNWESDEPIKKTLGLIVPPHERKFEKKFIELVVVVDHSMVTKYNNDSTAIRTWIYEMLNTVNEIYLPFNIRVALVGLEFWCNGDLINVTSTADDTLHSFGEWRASDLLNRKRHDHAQLLTNVTLDHSTLGITFVYGMCKSDRSVELILDYSNITFNMAYIIAHEMGHSLGMLHDTKFCTCGAKPCIMFGKESIPPPKEFSSCSYDQYNKYLLKYNPKCILDSPLRKDIASPAVCGNEIWEEGEECDCGSPADCRNPCCDAATCKLKPGAECGNGECCDKCKIRKAGTECRPARDDCDVAEHCTGQSAECPRNEFQR"}, "B3": {"name": "preproecarin S396, S170, delta IV (pDOEC39) (protein)", "chain": "CSIILGSGNVNDYEVVYPQKVTALPKGAVQQPEQKYEDAMQYEFEVKGEPVVLHLEKNKELFSEDYSETHYSSDDREITTNPSVEDHCYYHGRIQNDAESTASISACNGLKGHFKLRGETYFIEPLKIPDSEAHAVYKYENIENEDEAPKMSGVTQDNWESDEPIKKTLGLIVPPHERKFEKKFIELVVVVDHSMVTKYNNDSTAIRTWIYEMLNTVNEIYLPFNIRVALVGLEFWCNGDLINVTSTADDTLHSFGEWRASDLLNRKRHDHAQLLTNVTLDHSTLGITFVYGMCKSDRSVELILDYSNITFNMAYIIAHEMGHSLGMLHDTKFCTCGAKPCIMFGKESIPPPKEFSSCSYDQYNKYLLKYNPKCILDSPLRKDIASPAVCGNEIWEEGEECDCGSPADCRNPCCDAATCKLKPGAECGNGECCDKCKIRKAGTECRPARDDCDVAEHCTGQSAECPRNEFQR"}, "B4": {"name": "preproecarin S396, His6 (pDOEC30) (protein)", "chain": "CSIILGSGNVNDYEVVYPQKVTALPKGAVQQPEQKYEDAMQYEFEVKGEPVVLHLEKNKELFSEDYSETHYSSDDREITTNPSVEDHCYYHGRIQNDAESTASISACNGLKGHFKLRGETYFIEPLKIPDSEAHAVYKYENIENEDEAPKMCGVTQDNWESDEPIKKTLGLIVPPHERKFEKKFIELVVVVDHSMVTKYNNDSTAIRTWIYEMLNTVNEIYLPFNIRVALVGLEFWCNGDLINVTSTADDTLHSFGEWRASDLLNRKRHDHAQLLTNVTLDHSTLGITFVYGMCKSDRSVELILDYSNITFNMAYIIAHEMGHSLGMLHDTKFCTCGAKPCIMFGKESIPPPKEFSSCSYDQYNKYLLKYNPKCILDSPLRKDIASPAVCGNEIWEEGEECDCGSPADCRNPCCDAATCKLKPGAECGNGECCDKCKIRKAGTECRPARDDCDVAEHCTGQSAECPRNEFQRNGQPCLNNSGYCYNGDCPIMLNQCIALFSPSATVAQDSCFQRNLQGSYYGYCTKEIGYYGKRFPCAPQDVKCGRLYCLDNSFKKNMRCKNDYSYADENKGIVEPGTKCEDGKVCINRKCVDVNTAYHHHHHH"}, "B5": {"name": "preproecarin S396, delta III, IV (pDOEC38) (protein)", "chain": "CSIILGSGNVNDYEVVYPQKVTALPKGAVQQPEQKYEDAMQYEFEVKGEPVVLHLEKNKELFSEDYSETHYSSDDREITTNPSVEDHCYYHGRIQNDAESTASISACNGLKGHFKLRGETYFIEPLKIPDSEAHAVYKYENIENEDEAPKMCGVTQDNWESDEPIKKTLGLIVPPHERKFEKKFIELVVVVDHSMVTKYNNDSTAIRTWIYEMLNTVNEIYLPFNIRVALVGLEFWCNGDLINVTSTADDTLHSFGEWRASDLLNRKRHDHAQLLTNVTLDHSTLGITFVYGMCKSDRSVELILDYSNITFNMAYIIAHEMGHSLGMLHDTKFCTCGAKPCIMFGKESIPPPKEFSSCSYDQYNKYLLKYNPKCILDSP"}, "B6": {"name": "preproecarin S396, S170 delta III, IV (pDOEC40) (protein)", "chain": "CSIILGSGNVNDYEVVYPQKVTALPKGAVQQPEQKYEDAMQYEFEVKGEPVVLHLEKNKELFSEDYSETHYSSDDREITTNPSVEDHCYYHGRIQNDAESTASISACNGLKGHFKLRGETYFIEPLKIPDSEAHAVYKYENIENEDEAPKMSGVTQDNWESDEPIKKTLGLIVPPHERKFEKKFIELVVVVDHSMVTKYNNDSTAIRTWIYEMLNTVNEIYLPFNIRVALVGLEFWCNGDLINVTSTADDTLHSFGEWRASDLLNRKRHDHAQLLTNVTLDHSTLGITFVYGMCKSDRSVELILDYSNITFNMAYIIAHEMGHSLGMLHDTKFCTCGAKPCIMFGKESIPPPKEFSSCSYDQYNKYLLKYNPKCILDSP"}, "B7": {"name": "preproecarin P396, His6 (pDOEC34) (protein)", "chain": "CSIILGSGNVNDYEVVYPQKVTALPKGAVQQPEQKYEDAMQYEFEVKGEPVVLHLEKNKELFSEDYSETHYSSDDREITTNPSVEDHCYYHGRIQNDAESTASISACNGLKGHFKLRGETYFIEPLKIPDSEAHAVYKYENIENEDEAPKMCGVTQDNWESDEPIKKTLGLIVPPHERKFEKKFIELVVVVDHSMVTKYNNDSTAIRTWIYEMLNTVNEIYLPFNIRVALVGLEFWCNGDLINVTSTADDTLHSFGEWRASDLLNRKRHDHAQLLTNVTLDHSTLGITFVYGMCKSDRSVELILDYSNITFNMAYIIAHEMGHSLGMLHDTKFCTCGAKPCIMFGKESIPPPKEFSSCSYDQYNKYLLKYNPKCILDPPLRKDIASPAVCGNEIWEEGEECDCGSPADCRNPCCDAATCKLKPGAECGNGECCDKCKIRKAGTECRPARDDCDVAEHCTGQSAECPRNEFQRNGQPCLNNSGYCYNGDCPIMLNQCIALFSPSATVAQDSCFQRNLQGSYYGYCTKEIGYYGKRFPCAPQDVKCGRLYCLDNSFKKNMRCKNDYSYADENKGIVEPGTKCEDGKVCINRKCVDVNTAYHHHHHH"}}}
{"biological_target": "human prothrombin, P00734"}
{"protein": "B1", "Ecarin Activity, 48 Hours, +APMA": "7,526", "Ecarin Activity, 48 Hours, -APMA": "12,127", "Ecarin Activity, 120 Hours, +APMA": "14,850", "Ecarin Activity, 120 Hours, -APMA": "20,524", "prothrombin converting activity": "Alteration of position 170 to serine resulted in constituitive activation of proecarin, which was partially inhibited by the addition of APMA"}
{"protein": "B2", "Ecarin Activity, 48 Hours, +APMA": 0, "Ecarin Activity, 48 Hours, -APMA": 0, "Ecarin Activity, 120 Hours, +APMA": 68, "Ecarin Activity, 120 Hours, -APMA": 34, "prothrombin converting activity": "Deletion of the Cys-rich domain (positions 491 to 616) or the disintegrin and Cys-rich domains (398-616) abolished all ecarin activity in the presence or absence of APMA"}
{"protein": "B3", "Ecarin Activity, 48 Hours, +APMA": 0, "Ecarin Activity, 48 Hours, -APMA": 0, "Ecarin Activity, 120 Hours, +APMA": 0, "Ecarin Activity, 120 Hours, -APMA": 0, "prothrombin converting activity": "Deletion of the Cys-rich domain (positions 491 to 616) or the disintegrin and Cys-rich domains (398-616) abolished all ecarin activity in the presence or absence of APMA"}
{"protein": "B4", "Ecarin Activity, 48 Hours, +APMA": "74,077", "Ecarin Activity, 48 Hours, -APMA": "20,079", "Ecarin Activity, 120 Hours, +APMA": "164,602", "Ecarin Activity, 120 Hours, -APMA": "28,372", "conversion of prothrombin to thrombin by immobilized ecarin, Coomassie stained SDS-PAGE": "essentially complete (greater than 95%)", "prothrombin converting activity": "Proecarin having a serine at position 396 was active in the absence of APMA, and the amount of activity increased several fold by pretreatment with APMA"}
{"protein": "B5", "Ecarin Activity, 48 Hours, +APMA": 0, "Ecarin Activity, 48 Hours, -APMA": 0, "Ecarin Activity, 120 Hours, +APMA": 14, "Ecarin Activity, 120 Hours, -APMA": 0, "prothrombin converting activity": "Deletion of the Cys-rich domain (positions 491 to 616) or the disintegrin and Cys-rich domains (398-616) abolished all ecarin activity in the presence or absence of APMA"}
{"protein": "B6", "Ecarin Activity, 48 Hours, +APMA": 50, "Ecarin Activity, 48 Hours, -APMA": 0, "Ecarin Activity, 120 Hours, +APMA": 0, "Ecarin Activity, 120 Hours, -APMA": 0, "prothrombin converting activity": "Deletion of the Cys-rich domain (positions 491 to 616) or the disintegrin and Cys-rich domains (398-616) abolished all ecarin activity in the presence or absence of APMA"}
{"protein": "B7", "Ecarin Activity, 48 Hours, +APMA": 32, "Ecarin Activity, 48 Hours, -APMA": 36, "Ecarin Activity, 120 Hours, +APMA": 0, "Ecarin Activity, 120 Hours, -APMA": 43, "prothrombin converting activity": "Proecarin having the sequence disclosed in Nishida et al. (supra) had no activity in the presence or absence of APMA"}
